Key:
Assay in all cases: cryo-EM structure
[1] = target: CCT2 subunit of yeast TRiC (S. cerevisiae, UniProt P39076 1-527)
[2] = target: CCT7 subunit of yeast TRiC (S. cerevisiae, UniProt P42943 1-550)
[3] = target: CCT6 subunit of yeast TRiC (S. cerevisiae, UniProt P39079 1-546)
[4] = target: CCT5 subunit of yeast TRiC (S. cerevisiae, UniProt P40413 1-562)
[5] = target: CCT1 subunit of yeast TRiC (S. cerevisiae, UniProt P12612 1-559)
[6] = target: CCT3 subunit of yeast TRiC (S. cerevisiae, UniProt P39077 1-534)
Sequence of CCT3 subunit of yeast TRiC (P39077 whole entry): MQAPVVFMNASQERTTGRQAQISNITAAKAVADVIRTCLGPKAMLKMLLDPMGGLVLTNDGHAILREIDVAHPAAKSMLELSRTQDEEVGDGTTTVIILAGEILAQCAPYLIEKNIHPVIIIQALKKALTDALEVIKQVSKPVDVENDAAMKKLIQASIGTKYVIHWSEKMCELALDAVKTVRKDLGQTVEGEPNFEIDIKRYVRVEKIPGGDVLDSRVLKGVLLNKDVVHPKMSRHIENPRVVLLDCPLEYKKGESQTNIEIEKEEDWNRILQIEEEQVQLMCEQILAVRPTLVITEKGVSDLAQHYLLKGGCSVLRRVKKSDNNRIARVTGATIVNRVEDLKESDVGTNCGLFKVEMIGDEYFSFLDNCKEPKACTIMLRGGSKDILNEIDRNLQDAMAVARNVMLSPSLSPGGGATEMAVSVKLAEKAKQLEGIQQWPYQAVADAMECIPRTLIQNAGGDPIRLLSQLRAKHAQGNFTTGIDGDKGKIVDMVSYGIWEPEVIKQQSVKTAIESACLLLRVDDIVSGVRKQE

[7] = target: CCT4 subunit of yeast TRiC (S. cerevisiae, UniProt P39078 1-528)
Sequence of CCT4 subunit of yeast TRiC (P39078 whole entry): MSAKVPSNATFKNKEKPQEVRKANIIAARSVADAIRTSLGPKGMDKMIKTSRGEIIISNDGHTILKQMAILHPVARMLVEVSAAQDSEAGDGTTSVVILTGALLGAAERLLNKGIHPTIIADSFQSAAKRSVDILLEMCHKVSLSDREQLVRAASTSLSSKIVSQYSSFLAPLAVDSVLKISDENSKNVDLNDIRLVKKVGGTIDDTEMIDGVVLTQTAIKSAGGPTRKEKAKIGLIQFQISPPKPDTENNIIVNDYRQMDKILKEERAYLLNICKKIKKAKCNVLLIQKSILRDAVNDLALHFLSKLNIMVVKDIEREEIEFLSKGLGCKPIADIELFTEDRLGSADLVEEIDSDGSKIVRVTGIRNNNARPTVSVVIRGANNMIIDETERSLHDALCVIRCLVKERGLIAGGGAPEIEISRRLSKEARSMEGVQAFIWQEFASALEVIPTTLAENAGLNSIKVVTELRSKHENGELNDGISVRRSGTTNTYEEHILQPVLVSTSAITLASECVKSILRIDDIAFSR

Measured: binding result

Sequence of CCT6 subunit of yeast TRiC (P39079 whole entry): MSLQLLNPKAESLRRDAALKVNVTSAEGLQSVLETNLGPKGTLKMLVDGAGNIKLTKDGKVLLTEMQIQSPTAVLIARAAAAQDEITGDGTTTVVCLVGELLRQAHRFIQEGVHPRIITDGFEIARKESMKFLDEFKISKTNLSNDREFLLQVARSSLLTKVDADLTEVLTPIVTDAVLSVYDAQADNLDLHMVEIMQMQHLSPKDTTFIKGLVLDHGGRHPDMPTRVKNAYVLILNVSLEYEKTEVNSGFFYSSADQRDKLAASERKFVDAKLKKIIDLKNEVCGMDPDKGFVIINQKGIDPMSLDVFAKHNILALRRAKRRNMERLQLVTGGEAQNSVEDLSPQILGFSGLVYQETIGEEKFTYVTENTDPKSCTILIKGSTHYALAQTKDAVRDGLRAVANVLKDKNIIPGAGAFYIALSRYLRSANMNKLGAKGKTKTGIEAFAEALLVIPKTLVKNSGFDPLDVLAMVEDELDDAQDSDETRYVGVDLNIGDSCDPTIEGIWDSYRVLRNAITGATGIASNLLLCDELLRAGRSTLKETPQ
Sequence of CCT7 subunit of yeast TRiC (P42943 whole entry): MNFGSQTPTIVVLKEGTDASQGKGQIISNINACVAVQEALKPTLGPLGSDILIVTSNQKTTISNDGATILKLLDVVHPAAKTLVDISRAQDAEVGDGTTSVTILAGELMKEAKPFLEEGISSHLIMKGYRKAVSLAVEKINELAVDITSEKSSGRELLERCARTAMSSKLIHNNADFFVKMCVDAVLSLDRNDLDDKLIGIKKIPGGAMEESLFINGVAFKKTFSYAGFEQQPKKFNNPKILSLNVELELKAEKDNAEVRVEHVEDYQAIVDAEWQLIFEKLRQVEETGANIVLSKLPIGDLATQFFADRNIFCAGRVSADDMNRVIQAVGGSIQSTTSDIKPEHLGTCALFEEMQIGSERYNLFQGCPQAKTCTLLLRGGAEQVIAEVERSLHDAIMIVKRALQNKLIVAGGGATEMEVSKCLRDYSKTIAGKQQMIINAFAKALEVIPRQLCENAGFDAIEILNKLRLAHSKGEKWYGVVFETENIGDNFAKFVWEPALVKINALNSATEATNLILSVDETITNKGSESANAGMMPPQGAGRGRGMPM
Sequence of CCT1 subunit of yeast TRiC (P12612 whole entry): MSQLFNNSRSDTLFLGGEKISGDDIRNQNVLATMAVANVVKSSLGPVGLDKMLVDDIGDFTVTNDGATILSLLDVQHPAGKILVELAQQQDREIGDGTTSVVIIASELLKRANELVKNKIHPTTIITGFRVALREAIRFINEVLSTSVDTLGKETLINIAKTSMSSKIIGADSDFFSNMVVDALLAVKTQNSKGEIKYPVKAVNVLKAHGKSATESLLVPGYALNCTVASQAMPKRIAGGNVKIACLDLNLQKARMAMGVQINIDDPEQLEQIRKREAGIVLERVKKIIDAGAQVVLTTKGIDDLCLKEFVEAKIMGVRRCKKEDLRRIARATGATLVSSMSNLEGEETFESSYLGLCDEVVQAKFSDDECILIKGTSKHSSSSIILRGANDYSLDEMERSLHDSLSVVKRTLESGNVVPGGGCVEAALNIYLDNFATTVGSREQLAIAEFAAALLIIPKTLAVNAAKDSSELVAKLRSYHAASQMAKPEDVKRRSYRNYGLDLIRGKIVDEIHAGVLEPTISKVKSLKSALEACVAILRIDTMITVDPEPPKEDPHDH
Sequence of CCT5 subunit of yeast TRiC (P40413 whole entry): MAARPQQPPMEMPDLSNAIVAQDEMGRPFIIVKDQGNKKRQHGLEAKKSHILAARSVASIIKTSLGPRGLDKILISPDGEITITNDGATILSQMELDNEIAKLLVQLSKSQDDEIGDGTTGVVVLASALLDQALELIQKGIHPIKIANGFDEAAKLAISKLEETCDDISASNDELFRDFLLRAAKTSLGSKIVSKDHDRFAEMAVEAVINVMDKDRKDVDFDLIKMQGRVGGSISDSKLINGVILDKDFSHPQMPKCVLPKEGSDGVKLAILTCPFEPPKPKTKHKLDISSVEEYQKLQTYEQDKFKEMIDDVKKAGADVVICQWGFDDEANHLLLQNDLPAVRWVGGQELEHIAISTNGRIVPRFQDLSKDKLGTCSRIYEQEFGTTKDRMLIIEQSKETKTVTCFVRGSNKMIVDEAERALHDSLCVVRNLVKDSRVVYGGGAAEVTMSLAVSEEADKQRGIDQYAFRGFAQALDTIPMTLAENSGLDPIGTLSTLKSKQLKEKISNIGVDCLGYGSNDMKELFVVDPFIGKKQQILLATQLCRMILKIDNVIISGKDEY
Sequence of CCT2 subunit of yeast TRiC (P39076 whole entry): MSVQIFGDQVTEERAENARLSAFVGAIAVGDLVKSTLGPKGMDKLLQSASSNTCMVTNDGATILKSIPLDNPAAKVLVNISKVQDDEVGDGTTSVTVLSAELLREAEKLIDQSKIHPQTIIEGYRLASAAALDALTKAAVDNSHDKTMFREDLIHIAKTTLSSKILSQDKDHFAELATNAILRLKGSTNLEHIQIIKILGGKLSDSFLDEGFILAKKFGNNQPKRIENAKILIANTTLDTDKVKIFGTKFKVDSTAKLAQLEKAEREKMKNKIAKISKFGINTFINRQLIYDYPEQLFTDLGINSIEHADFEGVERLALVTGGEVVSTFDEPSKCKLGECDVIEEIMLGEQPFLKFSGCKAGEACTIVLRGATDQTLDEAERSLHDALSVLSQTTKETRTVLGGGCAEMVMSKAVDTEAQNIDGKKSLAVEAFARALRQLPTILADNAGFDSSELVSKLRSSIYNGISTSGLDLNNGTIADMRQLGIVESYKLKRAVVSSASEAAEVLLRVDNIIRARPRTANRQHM

B1: yeast plp2 (homolog of PhLP2 in Saccharomyces cerevisiae) (natural protein, S. cerevisiae)
chain: MQNEPMFQVQVDESEDSEWNDILRAKGVIPERAPSPTAKLEEALEEAIAKQHENRLEDKDLSDLEELEDDEDEDFLEAYKIKRLNEIRKLQERSKFGEVFHINKPEYNKEVTLASQGKKYEGAQTNDNGEEDDGGVYVFVHLSLQSKLQSRILSHLFQSAACKFREIKFVEIPANRAIENYPESNCPTLIVYYRGEVIKNMITLLELGGNNSKMEDFEDFMVKVGAVAEGDNRLIMNRDDEESREERKLHYGEKKSIRSGIRGKFNVGIGGNDDGNINDDDDGFFD
binds: all assays above
